# Source: patent publication US20060228300A1
# What was measured:
# [1] = molecular target: fusion protein containing the A3B3 domain of CEA (UniProt P06731); assay: competitive ELISA vs HRP-conjugated hMN-14 IgG (1 nM) on the A3B3 fusion protein
# CEA = CEA (UniProt P06731); assay: SE-HPLC of 125I-TF2 mixed with a 20-fold molar excess of CEA
# Chain of CEA (P06731 35-685 limits assumed): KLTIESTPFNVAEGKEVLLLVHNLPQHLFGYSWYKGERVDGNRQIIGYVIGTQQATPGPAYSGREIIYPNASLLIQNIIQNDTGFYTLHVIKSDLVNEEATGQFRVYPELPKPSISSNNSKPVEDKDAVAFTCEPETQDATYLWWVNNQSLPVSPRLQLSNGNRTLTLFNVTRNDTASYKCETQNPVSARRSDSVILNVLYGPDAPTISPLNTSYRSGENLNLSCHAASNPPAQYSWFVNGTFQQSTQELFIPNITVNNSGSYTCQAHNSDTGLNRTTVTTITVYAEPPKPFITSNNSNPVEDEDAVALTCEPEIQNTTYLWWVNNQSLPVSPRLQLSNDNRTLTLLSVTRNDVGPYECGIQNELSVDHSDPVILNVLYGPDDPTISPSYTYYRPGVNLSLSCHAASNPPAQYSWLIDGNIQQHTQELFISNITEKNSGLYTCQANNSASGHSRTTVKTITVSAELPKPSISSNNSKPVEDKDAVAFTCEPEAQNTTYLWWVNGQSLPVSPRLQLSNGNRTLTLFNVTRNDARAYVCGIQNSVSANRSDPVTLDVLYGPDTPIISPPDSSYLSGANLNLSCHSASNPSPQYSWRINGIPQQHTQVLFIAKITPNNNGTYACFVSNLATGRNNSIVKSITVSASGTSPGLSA
# Chain of fusion protein containing the A3B3 domain of CEA (P06731 499-676): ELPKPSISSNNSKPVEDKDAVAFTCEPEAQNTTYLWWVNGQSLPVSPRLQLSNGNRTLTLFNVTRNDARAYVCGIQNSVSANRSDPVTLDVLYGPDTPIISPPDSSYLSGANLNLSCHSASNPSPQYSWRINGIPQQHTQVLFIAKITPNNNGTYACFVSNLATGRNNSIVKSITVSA
substance,measurement,setting,value
TF2 (bispecific antibody),fold avidity against TF1,[1],2 fold
same,percent shifted to a high molecular weight species,CEA,95%
